The target in assay [1] is T1, Recombinant Human FGF-23 (R&D Systems, Cat No. 2604-FG-025/CF) (human, UniProt Q9GZV9 25-251).
T1 construct: Bought protein
T1 sequence (looked up): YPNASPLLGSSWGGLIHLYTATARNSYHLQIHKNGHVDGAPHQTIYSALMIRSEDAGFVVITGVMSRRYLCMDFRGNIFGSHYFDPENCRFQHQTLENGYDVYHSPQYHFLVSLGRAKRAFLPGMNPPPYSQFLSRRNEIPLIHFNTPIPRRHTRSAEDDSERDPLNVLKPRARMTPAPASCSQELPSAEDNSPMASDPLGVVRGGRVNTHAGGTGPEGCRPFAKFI
The experiment in a line: SPR, antibody captured by anti-human IgG, FGF-23 analyte. (SPR reads the build-up and loss of mass on a sensor chip optically.)

Assay [2] has as its target T2, human FcRn (human FcRn-His tag with human β2 microglobulin) (human, UniProt P55899 24-297; P61769 21-119).
T2 construct: also called h FcRn; hFcRn
Put plainly: SPR pH 6, FcRn-His captured by anti-His, antibody analyte.

The target in assay [3] is T3, monkey FcRn (monkey FcRn-His tag with monkey β2 microglobulin) (cynomolgus monkey, UniProt Q8SPV9 24-297; Q8SPW0 21-119).
T3 construct: also called cyno FcRn; cynomolgus monkey FcRn extracellular domain His-tag body
The assay is described as above.

Assay [4] has as its target T1, Recombinant Human FGF-23 (R&D Systems, …). Put plainly: cell-based or functional assay.

T3 sequence (Q8SPV9 other isoform, or with tags, fused parts or gaps limits assumed, chain 1 of 2): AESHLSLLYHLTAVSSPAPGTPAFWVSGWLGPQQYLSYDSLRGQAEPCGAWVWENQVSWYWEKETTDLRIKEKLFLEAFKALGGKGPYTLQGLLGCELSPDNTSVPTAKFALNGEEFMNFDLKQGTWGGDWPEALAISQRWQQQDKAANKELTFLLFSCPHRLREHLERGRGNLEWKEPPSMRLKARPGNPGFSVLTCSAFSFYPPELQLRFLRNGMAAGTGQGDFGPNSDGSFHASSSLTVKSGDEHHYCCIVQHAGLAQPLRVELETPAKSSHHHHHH
T3 sequence (Q8SPW0 21-119 limits assumed, chain 2 of 2): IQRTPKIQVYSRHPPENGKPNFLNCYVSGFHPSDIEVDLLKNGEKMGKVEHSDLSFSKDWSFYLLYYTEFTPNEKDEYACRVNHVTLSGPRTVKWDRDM
T2 sequence (P55899 other isoform, or with tags, fused parts or gaps limits assumed, chain 1 of 2): as the sequence (Q8SPV9 other isoform, or with tags, fused parts or gaps limits assumed, chain 1 of 2) above, with D39N, Q44E, S99G, G189S, N190S, M217L, T269S counted along it
T2 sequence (P61769 21-119 limits assumed, chain 2 of 2): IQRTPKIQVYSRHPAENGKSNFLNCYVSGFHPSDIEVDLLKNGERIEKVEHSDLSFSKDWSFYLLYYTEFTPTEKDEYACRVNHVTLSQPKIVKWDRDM

B1: antibody D105E (antibody, human IgG1, V domains shown)
VH: QVQLVQSGAEVKKPGASVKVSCKASGYTFTNHYMHWVRQAPGQGLEWMGIINPISGSTSNAQKFQGRVTMTRDTSTSTVYMELSSLRSEDTAVYYCARDIVDAFEFWGQGTMVTVSS
VL: AIQLTQSPSSLSASVGDRVTITCRASQGISSALVWYQQKPGKAPKLLIYDASSLESGVPSRFSGSGSGTDFTLTISSLQPEDFATYYCQQFNDYFTFGPGTKVDIK
notes: also called modified antibody D105
Regarding B1, the Kd (as a rule, the concentration at which binding is half-saturated) in assay [1] amounted to 0.017 nM.

B2: antibody A_A (antibody, human IgG1, name in EU numbering)
heavy: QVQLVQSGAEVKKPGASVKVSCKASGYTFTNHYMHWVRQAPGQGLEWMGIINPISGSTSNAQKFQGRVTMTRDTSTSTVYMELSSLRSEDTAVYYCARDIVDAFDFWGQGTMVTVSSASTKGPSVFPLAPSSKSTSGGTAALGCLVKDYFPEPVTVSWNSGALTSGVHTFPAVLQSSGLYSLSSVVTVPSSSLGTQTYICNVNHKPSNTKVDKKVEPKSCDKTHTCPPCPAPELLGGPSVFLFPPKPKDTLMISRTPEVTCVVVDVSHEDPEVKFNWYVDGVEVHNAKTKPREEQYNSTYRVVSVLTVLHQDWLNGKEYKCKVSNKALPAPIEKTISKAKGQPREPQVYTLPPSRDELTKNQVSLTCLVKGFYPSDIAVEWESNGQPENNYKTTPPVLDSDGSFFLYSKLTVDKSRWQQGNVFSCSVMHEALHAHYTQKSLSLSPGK
light: AIQLTQSPSSLSASVGDRVTITCRASQGISSALVWYQQKPGKAPKLLIYDASSLESGVPSRFSGSGSGTDFTLTISSLQPEDFATYYCQQFNDYFTFGPGTKVDIK
notes: not shown: human kappa chain constant region; copies: 2 + 2
Turning to B2, the Kd in assay [2] was 308 nM; in assay [3] it was 155 nM.

B3: antibody D105M (antibody, human IgG1, V domains shown)
VH: QVQLVQSGAEVKKPGASVKVSCKASGYTFTNHYMHWVRQAPGQGLEWMGIINPISGSTSNAQKFQGRVTMTRDTSTSTVYMELSSLRSEDTAVYYCARDIVDAFMFWGQGTMVTVSS
VL: AIQLTQSPSSLSASVGDRVTITCRASQGISSALVWYQQKPGKAPKLLIYDASSLESGVPSRFSGSGSGTDFTLTISSLQPEDFATYYCQQFNDYFTFGPGTKVDIK
notes: as for B1
With B3, the “FGF23 neutralizing activity IC50 (luciferase promoter assay)” value (from here on “FGF23 neutralizing activity IC50”) in assay [4] was greater than 0.1 µg/mL. Moreover, the Kd in assay [1] was 0.671 nM.

B4: antibody D105W (antibody, human IgG1, V domains shown)
VH: QVQLVQSGAEVKKPGASVKVSCKASGYTFTNHYMHWVRQAPGQGLEWMGIINPISGSTSNAQKFQGRVTMTRDTSTSTVYMELSSLRSEDTAVYYCARDIVDAFWFWGQGTMVTVSS
VL: AIQLTQSPSSLSASVGDRVTITCRASQGISSALVWYQQKPGKAPKLLIYDASSLESGVPSRFSGSGSGTDFTLTISSLQPEDFATYYCQQFNDYFTFGPGTKVDIK
notes: as for B1
Consider B4, for which the “FGF23 neutralizing activity IC50” value in assay [4] worked out at 0.0779 µg/mL. Further, in assay [1], the Kd was 0.149 nM.

B5: antibody D105F (antibody, human IgG1, V domains shown)
VH: QVQLVQSGAEVKKPGASVKVSCKASGYTFTNHYMHWVRQAPGQGLEWMGIINPISGSTSNAQKFQGRVTMTRDTSTSTVYMELSSLRSEDTAVYYCARDIVDAFFFWGQGTMVTVSS
VL: AIQLTQSPSSLSASVGDRVTITCRASQGISSALVWYQQKPGKAPKLLIYDASSLESGVPSRFSGSGSGTDFTLTISSLQPEDFATYYCQQFNDYFTFGPGTKVDIK
notes: as for B1
Turning to B5, the “FGF23 neutralizing activity IC50” value in assay [4] was greater than 0.1 µg/mL. Moreover, in assay [1], the Kd was 0.178 nM.

B6: antibody D105G (antibody, human IgG1, V domains shown)
VH: QVQLVQSGAEVKKPGASVKVSCKASGYTFTNHYMHWVRQAPGQGLEWMGIINPISGSTSNAQKFQGRVTMTRDTSTSTVYMELSSLRSEDTAVYYCARDIVDAFGFWGQGTMVTVSS
VL: AIQLTQSPSSLSASVGDRVTITCRASQGISSALVWYQQKPGKAPKLLIYDASSLESGVPSRFSGSGSGTDFTLTISSLQPEDFATYYCQQFNDYFTFGPGTKVDIK
notes: as for B1
B6: the “FGF23 neutralizing activity IC50” value in assay [4] came out at 0.0331 µg/mL. The Kd in assay [1] stood at 0.0975 nM.

B7: antibody D105N (antibody, human IgG1, V domains shown)
VH: QVQLVQSGAEVKKPGASVKVSCKASGYTFTNHYMHWVRQAPGQGLEWMGIINPISGSTSNAQKFQGRVTMTRDTSTSTVYMELSSLRSEDTAVYYCARDIVDAFNFWGQGTMVTVSS
VL: AIQLTQSPSSLSASVGDRVTITCRASQGISSALVWYQQKPGKAPKLLIYDASSLESGVPSRFSGSGSGTDFTLTISSLQPEDFATYYCQQFNDYFTFGPGTKVDIK
notes: as for B1
Turning to B7, the “FGF23 neutralizing activity IC50” value in assay [4] stood at 0.014 µg/mL. For the same molecule, in assay [1], the Kd was 0.046 nM.

B8: antibody D105P (antibody, human IgG1, V domains shown)
VH: QVQLVQSGAEVKKPGASVKVSCKASGYTFTNHYMHWVRQAPGQGLEWMGIINPISGSTSNAQKFQGRVTMTRDTSTSTVYMELSSLRSEDTAVYYCARDIVDAFPFWGQGTMVTVSS
VL: AIQLTQSPSSLSASVGDRVTITCRASQGISSALVWYQQKPGKAPKLLIYDASSLESGVPSRFSGSGSGTDFTLTISSLQPEDFATYYCQQFNDYFTFGPGTKVDIK
notes: as for B1
Regarding B8, the “FGF23 neutralizing activity IC50” value in assay [4] was determined as 0.0992 µg/mL. The Kd in assay [1] was found to be 0.201 nM.

B9: antibody D105Y (antibody, human IgG1, V domains shown)
VH: QVQLVQSGAEVKKPGASVKVSCKASGYTFTNHYMHWVRQAPGQGLEWMGIINPISGSTSNAQKFQGRVTMTRDTSTSTVYMELSSLRSEDTAVYYCARDIVDAFYFWGQGTMVTVSS
VL: AIQLTQSPSSLSASVGDRVTITCRASQGISSALVWYQQKPGKAPKLLIYDASSLESGVPSRFSGSGSGTDFTLTISSLQPEDFATYYCQQFNDYFTFGPGTKVDIK
notes: as for B1
For the molecule B9, in assay [4], the “FGF23 neutralizing activity IC50” value was 0.0216 µg/mL. Further, in assay [1], the Kd amounted to 0.102 nM.

B10: antibody D105S (antibody, human IgG1, V domains shown)
VH: QVQLVQSGAEVKKPGASVKVSCKASGYTFTNHYMHWVRQAPGQGLEWMGIINPISGSTSNAQKFQGRVTMTRDTSTSTVYMELSSLRSEDTAVYYCARDIVDAFSFWGQGTMVTVSS
VL: AIQLTQSPSSLSASVGDRVTITCRASQGISSALVWYQQKPGKAPKLLIYDASSLESGVPSRFSGSGSGTDFTLTISSLQPEDFATYYCQQFNDYFTFGPGTKVDIK
notes: as for B1
For B10, the “FGF23 neutralizing activity IC50” value in assay [4] is 0.0278 µg/mL. In addition, the Kd in assay [1] stood at 0.106 nM.

B11: antibody D105H (antibody, human IgG1, V domains shown)
VH: QVQLVQSGAEVKKPGASVKVSCKASGYTFTNHYMHWVRQAPGQGLEWMGIINPISGSTSNAQKFQGRVTMTRDTSTSTVYMELSSLRSEDTAVYYCARDIVDAFHFWGQGTMVTVSS
VL: AIQLTQSPSSLSASVGDRVTITCRASQGISSALVWYQQKPGKAPKLLIYDASSLESGVPSRFSGSGSGTDFTLTISSLQPEDFATYYCQQFNDYFTFGPGTKVDIK
notes: as for B1
As for B11, in assay [4], the “FGF23 neutralizing activity IC50” value turned out to be 0.0467 µg/mL. Moreover, the Kd in assay [1] stood at 0.143 nM.

B12: antibody A_P (antibody, human IgG1, name in EU numbering)
heavy: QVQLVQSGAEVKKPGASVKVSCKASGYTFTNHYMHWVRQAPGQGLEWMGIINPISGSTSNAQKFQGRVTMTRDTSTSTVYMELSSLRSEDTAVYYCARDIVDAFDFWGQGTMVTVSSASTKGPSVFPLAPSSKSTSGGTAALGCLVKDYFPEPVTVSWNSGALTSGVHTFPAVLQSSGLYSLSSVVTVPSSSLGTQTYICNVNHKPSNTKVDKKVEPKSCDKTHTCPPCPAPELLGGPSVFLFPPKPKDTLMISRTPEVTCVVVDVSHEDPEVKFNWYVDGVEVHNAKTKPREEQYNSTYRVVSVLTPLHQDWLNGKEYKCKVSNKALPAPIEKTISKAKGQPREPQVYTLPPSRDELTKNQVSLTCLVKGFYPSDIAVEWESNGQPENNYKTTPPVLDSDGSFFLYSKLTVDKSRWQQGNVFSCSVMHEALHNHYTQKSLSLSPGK
light: AIQLTQSPSSLSASVGDRVTITCRASQGISSALVWYQQKPGKAPKLLIYDASSLESGVPSRFSGSGSGTDFTLTISSLQPEDFATYYCQQFNDYFTFGPGTKVDIK
notes: positions are EU index; not shown: human kappa chain constant region; copies: 2 + 2
For the molecule B12, the dissociation constant Kd amounted to 183 nM in assay [2] and 60.2 nM in assay [3].

B13: antibody D105V (antibody, human IgG1, V domains shown)
VH: QVQLVQSGAEVKKPGASVKVSCKASGYTFTNHYMHWVRQAPGQGLEWMGIINPISGSTSNAQKFQGRVTMTRDTSTSTVYMELSSLRSEDTAVYYCARDIVDAFVFWGQGTMVTVSS
VL: AIQLTQSPSSLSASVGDRVTITCRASQGISSALVWYQQKPGKAPKLLIYDASSLESGVPSRFSGSGSGTDFTLTISSLQPEDFATYYCQQFNDYFTFGPGTKVDIK
notes: as for B1
For the molecule B13, the “FGF23 neutralizing activity IC50” value in assay [4] is greater than 0.1 µg/mL. The Kd in assay [1] worked out at 0.263 nM.

B14: antibody D105R (antibody, human IgG1, V domains shown)
VH: QVQLVQSGAEVKKPGASVKVSCKASGYTFTNHYMHWVRQAPGQGLEWMGIINPISGSTSNAQKFQGRVTMTRDTSTSTVYMELSSLRSEDTAVYYCARDIVDAFRFWGQGTMVTVSS
VL: AIQLTQSPSSLSASVGDRVTITCRASQGISSALVWYQQKPGKAPKLLIYDASSLESGVPSRFSGSGSGTDFTLTISSLQPEDFATYYCQQFNDYFTFGPGTKVDIK
notes: as for B1
Consider B14, for which the “FGF23 neutralizing activity IC50” value in assay [4] is greater than 0.1 µg/mL. Besides, the dissociation constant (Kd) in assay [1] turned out to be 1.91 nM.

B15: antibody D105I (antibody, human IgG1, V domains shown)
VH: QVQLVQSGAEVKKPGASVKVSCKASGYTFTNHYMHWVRQAPGQGLEWMGIINPISGSTSNAQKFQGRVTMTRDTSTSTVYMELSSLRSEDTAVYYCARDIVDAFIFWGQGTMVTVSS
VL: AIQLTQSPSSLSASVGDRVTITCRASQGISSALVWYQQKPGKAPKLLIYDASSLESGVPSRFSGSGSGTDFTLTISSLQPEDFATYYCQQFNDYFTFGPGTKVDIK
notes: as for B1
On to B15, for which the “FGF23 neutralizing activity IC50” value in assay [4] was 0.0237 µg/mL. The Kd in assay [1] was 0.0734 nM.

B16: antibody D105K (antibody, human IgG1, V domains shown)
VH: QVQLVQSGAEVKKPGASVKVSCKASGYTFTNHYMHWVRQAPGQGLEWMGIINPISGSTSNAQKFQGRVTMTRDTSTSTVYMELSSLRSEDTAVYYCARDIVDAFKFWGQGTMVTVSS
VL: AIQLTQSPSSLSASVGDRVTITCRASQGISSALVWYQQKPGKAPKLLIYDASSLESGVPSRFSGSGSGTDFTLTISSLQPEDFATYYCQQFNDYFTFGPGTKVDIK
notes: as for B1
As to B16, the “FGF23 neutralizing activity IC50” value in assay [4] turned out to be 0.0457 µg/mL. Moreover, in assay [1], the Kd is 0.262 nM.

B17: antibody D105L (antibody, human IgG1, V domains shown)
VH: QVQLVQSGAEVKKPGASVKVSCKASGYTFTNHYMHWVRQAPGQGLEWMGIINPISGSTSNAQKFQGRVTMTRDTSTSTVYMELSSLRSEDTAVYYCARDIVDAFLFWGQGTMVTVSS
VL: AIQLTQSPSSLSASVGDRVTITCRASQGISSALVWYQQKPGKAPKLLIYDASSLESGVPSRFSGSGSGTDFTLTISSLQPEDFATYYCQQFNDYFTFGPGTKVDIK
notes: as for B1
Turning to B17, the “FGF23 neutralizing activity IC50” value in assay [4] was 0.0256 µg/mL. Further, the Kd in assay [1] stood at 0.0639 nM.

B18: antibody D105Q (antibody, human IgG1, V domains shown)
VH: QVQLVQSGAEVKKPGASVKVSCKASGYTFTNHYMHWVRQAPGQGLEWMGIINPISGSTSNAQKFQGRVTMTRDTSTSTVYMELSSLRSEDTAVYYCARDIVDAFQFWGQGTMVTVSS
VL: AIQLTQSPSSLSASVGDRVTITCRASQGISSALVWYQQKPGKAPKLLIYDASSLESGVPSRFSGSGSGTDFTLTISSLQPEDFATYYCQQFNDYFTFGPGTKVDIK
notes: as for B1
Consider B18, for which the “FGF23 neutralizing activity IC50” value in assay [4] was greater than 0.1 µg/mL. In assay [1], the dissociation constant (Kd) was 0.252 nM.

Values taken from US20250163140A1 (Kyowa Kirin, published 2025).
